Target: EpCAM (epithelial cell adhesion molecule) on cells (UniProt P16422)
Assay: cell-based or functional assay

UniProt P16422, sequence (P16422 24-314 limits assumed): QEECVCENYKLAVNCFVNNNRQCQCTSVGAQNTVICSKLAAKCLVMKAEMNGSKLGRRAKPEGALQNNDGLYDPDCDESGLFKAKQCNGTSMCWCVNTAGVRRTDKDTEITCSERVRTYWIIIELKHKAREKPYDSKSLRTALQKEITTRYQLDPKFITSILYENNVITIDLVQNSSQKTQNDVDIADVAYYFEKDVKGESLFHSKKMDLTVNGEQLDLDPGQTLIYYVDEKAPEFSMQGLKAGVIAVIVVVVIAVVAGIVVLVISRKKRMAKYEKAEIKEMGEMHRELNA

B1: EpCAMscFv-HveA adapter (fused protein of scFv for EpCAM and HveA82 extracellular domain of HVEM) (protein)
chain: DIQMTQSPSSLSASVGDRVTITCRSTKSLLHSNGITYLYWYQQKPGKAPKLLIYQMSNLASGVPSRFSSSGSGTDFTLTISSLQPEDFATYYCAQNLEIPRTFGQGTKVELKRATPSHNSHQVPSAGGPTANSGTSGSEVQLVQSGPGLVQPGGSVRISCAASGYTFTNYGMNWVKQAPGKGLEWMGWINTYTGESTYADSFKGRFTFSLDTSASAAYLQINSLRAEDTAVYYCARFAIKGDYWGQGTLLTVSSGGGGSEFLPSCKEDEYPVGSECCPKCSPGYRVKEACGELTGTVCEPCPPGTYIAHLNGLSKCLQCQMCDPAMGLRASRNCSRTENAVCGHHHHHH
- cell viability of BT-474 cells 5 days after infection with EADa-S virus: 34%
- cell viability of MCF-7 cells 5 days after infection with EADa-S virus: 31%
- cell viability of MDA-MB-453 cells 5 days after infection with EADa-S virus: 19%

— patent US20220305066A1
